In paper PMC10520873, “Biochemical investigation of the tryptophan biosynthetic enzyme anthranilate phosphoribosyltransferase in plants” (The Journal of Biological Chemistry, 2023):

Substrate: Nc1c(O)cccc1C(=O)O
Test: purified protein
Assay type: biochemical, Physcomitrium patens
Conditions: 1 mM PR-PPi, 45 mM imidazole HCl pH 7.4, 30 °C, 3-HAA 0-0.5 mM

B1: PpPAT1 (Physcomitrium patens) (protein)
chain: MAAALASQRTWLPSSSVGPFRGSFATAPASSPRVLGVPRKFAVESGKWEVLVRNVRAQSSTVTVPARTLSIPQVLEQLIQGTNLTQAQTEEVMETLLADANPAIIGAFLALLRAKGETLDEVTGLASAMLSRAIPVRTVPGSLDIVGTGGDGANTVNISTGSCILAAACGAKVAKHGSRSSSSACGSADVLETLGVAIDLGPEGVAKCVEDVGVGFMFAPTYHPAMKVVAPVRRSLKIKTAFNILGPMLNPSRAPHSIVGVYHDNLVEKMAKILQHFGTKRTLVVHCHGLDEMSPLGGGRVLEVTQDKIESFVFDPLNFGIPRCTLEDLKGGNADFNAKSLRNVFAGEPGPIADSLILNAAAGIMACGLVKDLGEGVSLARDVLRSGRANTVLDNWISLSQKLKAEEVSE
notes: codon-optimized gene in pET28a, His-tagged, E. coli BL21 (DE3), Ni-NTA
Km: 99.71 ± 11.2 µM
kcat: 0.0533 ± 0.00167 s⁻¹
kcat/Km: 537 M⁻¹ s⁻¹
